Experimental data published in article PMC8900818, “The suppressor of copper sensitivity protein C from Caulobacter crescentus is a trimeric disulfide isomerase that binds copper(I) with subpicomolar affinity” (Acta Crystallographica. Section D, Structural Biology, 2022).

How the values were obtained:
[1] = target: Caulobacter crescentus suppressor of copper sensitivity protein C, C2S variant (Caulobacter crescentus); experiment: mass photometry; reduced proteins diluted to ~150 nM and added in 2 µl steps to 10 µl buffer (25 mM HEPES pH 7.5, 150 mM NaCl); Refeyn One; mass of the main peak against the monomer's mass
[2] = target: Caulobacter crescentus suppressor of copper sensitivity protein C, C2S variant (Caulobacter crescentus); experiment: crystal structure; reduced CcScsC C2S at 130 mg/ml, 37-39% MPD, 0.02 M CaCl2, 0.2 M sodium acetate pH 7.25, 4°C; space group P63, one protomer per asymmetric unit, trimer by crystallographic symmetry
[3] = target: Caulobacter crescentus suppressor of copper sensitivity protein C, wild type (Caulobacter crescentus); experiment: mass photometry; reduced proteins diluted to ~150 nM and added in 2 µl steps to 10 µl buffer (25 mM HEPES pH 7.5, 150 mM NaCl); Refeyn One; mass of the main peak against the monomer's mass
[4] = target: Caulobacter crescentus suppressor of copper sensitivity protein C, wild type (Caulobacter crescentus); experiment: SEC-SAXS; inline SEC-SAXS (S200 5/150 GL) with sheath flow, 283 K, injection 5.6 mg/ml; molecular mass from the Porod volume
[5] = target: Proteus mirabilis ScsC (Proteus mirabilis); experiment: mass photometry; reduced proteins diluted to ~150 nM and added in 2 µl steps to 10 µl buffer (25 mM HEPES pH 7.5, 150 mM NaCl); Refeyn One; mass of the main peak against the monomer's mass
[6] = target: the molecule itself; experiment: as above

## Caulobacter crescentus suppressor of copper sensitivity protein C, C2S variant (enzyme)
[1]
  stoichiometry N: 3
[2]
  stoichiometry N: 3

## Caulobacter crescentus suppressor of copper sensitivity protein C, wild type (enzyme)
[3]
  stoichiometry N: 3
[4]
  stoichiometry N: 3

## Proteus mirabilis ScsC (enzyme)
[5]
  stoichiometry N: 3

B1: Escherichia coli DsbC (enzyme, UniProt P0AEG6 21-236, looked up)
chain: DDAAIQQTLAKMGIKSSDIQPAPVAGMKTVLTNSGVLYITDDGKHIIQGPMYDVSGTAPVNVTNKMLLKQLNALEKEMIVYKAPQEKHVITVFTDITCGYCHKLHEQMADYNALGITVRYLAFPRQGLDSDAEKEMKAIWCAKDKNKAFDDVMAGKSVAPASCDVDIADHYALGVQLGVSGTPAVVLSNGTLVPGYQPPKEMKEFLDEHQKMTSGK
notes: E. coli DsbC, UniProt P0AEG6; monomer printed as 24.1 kDa; Control protein of the mass photometry; Probably the mature protein without signal peptide; also called EcDsbC
[6]
  stoichiometry N: 2
